# Test results: patent US11370837 (dated 2022)
# Where a chain is given by its changes, count along the chain named.
# T1: human TIGIT-Fc (human, UniProt Q495A1)
# T1 chain: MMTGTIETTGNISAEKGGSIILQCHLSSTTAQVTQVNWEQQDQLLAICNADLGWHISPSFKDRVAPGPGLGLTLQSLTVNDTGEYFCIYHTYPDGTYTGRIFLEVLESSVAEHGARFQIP
# T2: human TIGIT on CHO cells (human, UniProt Q495A1)
# T2 chain: T1 chain
# B1: ADI-30272 Fab (antibody, V domains shown)
# VH: QVQLVQSGAEVKKPGASVKVSCKASGYTFTEYYMHWVRQAPGQGLEWMGIISPSAGSTSYAQKFQGRVTMTRDTSTSTVYMELSSLRSEDTAVYYCARDHDIAAAGRLADYWGQGTLVTVSS
# VL: DIQMTQSPSSVSASVGDRVTITCRASQGISSWLAWYQQKPGKAPKLLISAASSLQSGVPSRFSGSGSGTDFTLTISSLQPEDFATYYCQQAVILPITFGGGTKVEIK
# B2: ADI-30278 Fab (antibody, V domains shown)
# VH: B1 VH with S59K, A103R, A104L
# VL: B1 VL
# B3: ADI-27297 Fab (antibody, V domains shown)
# VH: B1 VH with E31S, S52N, A55G
# VL: B1 VL
# B4: ADI-30286 Fab (antibody, V domains shown)
# VH: EVQLLESGGGLVQPGGSLRLSCAASGFTFGPYGMSWVRQAPGKGLEWVSAISGSGASTWYADSVKGRFTISRDNSKNTLYLQMNSLRAEDTAVYYCAKDPGTHYSGYYYIWRYWGQGTLVTVSS
# VL: EIVMTQSPATLSVSPGERATLSCRASQSVSSNLAWYQQKPGQAPRLLIYSASTRATGIPARFSGSGSGTEFTLTISSLQSEDFAVYYCQQYVPHPPFTFGGGTKVEIK
# B5: ADI-30288 Fab (antibody, V domains shown)
# VH: B4 VH with Y60H, H103D, Y104S, S105T
# VL: B4 VL
# B6: ADI-30283 Fab (antibody, V domains shown)
# VH: B4 VH with G30S, A50S, A56G, S57R, W59Y, H103D, Y104S
# VL: B4 VL
# B7: ADI-27291 Fab (antibody, V domains shown)
# VH: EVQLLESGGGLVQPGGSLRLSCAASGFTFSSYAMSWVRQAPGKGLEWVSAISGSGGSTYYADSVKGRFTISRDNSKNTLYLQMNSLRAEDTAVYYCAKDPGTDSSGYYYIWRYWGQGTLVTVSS
# VL: B4 VL
# B8: ADI-27301 Fab (antibody, V domains shown)
# VH: QLQLQESGPGLVKPSETLSLTCTVSGGSISSSSYYWGWIRQPPGKGLEWIGSIYYSGSTYYNPSLKSRVTISVDTSKNQFSLKLSSVTAADTAVYYCAREAGRGTTGLLFDYWGQGTLVTVSS
# VL: DIQMTQSPSTLSASVGDRVTITCRASQSISSWLAWYQQKPGKAPKLLIYKASSLESGVPSRFSGSGSGTEFTLTISSLQPDDFATYYCQQYGILPRTFGGGTKVEIK
# B9: ADI-30311 Fab (antibody, V domains shown)
# VH: B8 VH with S30A, S33V, Y60W, G104T, T105G
# VL: B8 VL
# B10: ADI-30302 Fab (antibody, V domains shown)
# VH: QLQLQESGPGLVKPSETLSLTCTVSGGSIGSSQYYWGWIRQPPGKGLEWIGSIYRSGGTYYNPSLKSRVTISVDTSKNQFSLKLSSVTAADTAVYYCARDGLYHTPEYFQHWGQGTLVTVSS
# VL: EIVLTQSPATLSLSPGERATLSCRASQSVSSYLAWYQQKPGQAPRLLIYDASNRATGIPARFSGSGSGTDFTLTISSLEPEDFAVYYCQQRFAFPYTFGGGTKVEIK
# B11: ADI-30336 Fab (antibody, V domains shown)
# VH: B10 VH with G30S, Q33R, R55Y, G58S
# VL: B10 VL with F94H
# B12: ADI-27243 Fab (antibody, V domains shown)
# VH: B10 VH with G30S, Q33R, R55Y, G58S
# VL: B10 VL
# B13: ADI-27278 Fab (antibody, V domains shown)
# VH: EVQLVESGGGLVQPGGSLRLSCAASGFTFSSYSMNWVRQAPGKGLEWVSYISGSSSTIYYADSVKGRFTISRDNAKNSLYLQMNSLRAEDTAVYYCARHRIADSPSRAFDIWGQGTMVTVSS
# VL: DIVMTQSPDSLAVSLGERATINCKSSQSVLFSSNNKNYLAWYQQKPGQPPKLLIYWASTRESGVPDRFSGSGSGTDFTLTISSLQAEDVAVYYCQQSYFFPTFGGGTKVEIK
# B14: ADI-30293 Fab (antibody, V domains shown)
# VH: EVQLVESGGGLVQPGGSLRLSCAASGFTFSSYSMNWVRQAPGKGLEWVSYISSSGTINYADSVKGRFTISRDNAKNSLYLQMNSLRAEDTAVYYCARHRIADSPSRAFDIWGQGTMVTVSS
# VL: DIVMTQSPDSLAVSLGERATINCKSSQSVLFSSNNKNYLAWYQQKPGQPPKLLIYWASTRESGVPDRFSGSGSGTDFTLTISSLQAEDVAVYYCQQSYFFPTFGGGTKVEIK
# B15: ADI-30296 Fab (antibody, V domains shown)
# VH: B14 VH with F29I, S30G, S31G, G55S, N58H, A101G, D102R
# VL: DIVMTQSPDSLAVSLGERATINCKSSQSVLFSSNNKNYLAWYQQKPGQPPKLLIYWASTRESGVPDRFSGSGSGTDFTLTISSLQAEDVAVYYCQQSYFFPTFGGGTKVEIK
# B16: ADI-30268 Fab (antibody, V domains shown)
# VH: QVQLVQSGAEVKKPGASVKVSCKASGYTFGSYYMGWVRQAPGQGLEWMGIIDPSGGRTSYARKFQGRVTMTRDTSTSTVYMELSSLRSEDTAVYYCARARTPSSWPYGMDVWGQGTTVTVSS
# VL: DIQMTQSPSSLSASVGDRVTITCRASQSINSYLNWYQQKPGKAPKLLIYAASSLQSGVPSRFSGSGSGTDFTLTISSLQPEDFATYYCQQSLLTPFTFGGGTKVEIK
# B17: ADI-27238 Fab (antibody, V domains shown)
# VH: B16 VH with G30T, G35S, D52N, R57S, R62Q, T101Y
# VL: B16 VL
# B18: ADI-30263 Fab (antibody, V domains shown)
# VH: B16 VH with G30L, G35N, R62Q, T101Y, M109T
# VL: B16 VL
# B19: ADI-30267 Fab (antibody, V domains shown)
# VH: B16 VH with G30R, G35S, Y60F, R62Q, T101Y, S103E
# VL: B16 VL
# B20: ADI-30302 (antibody, V domains shown)
# VH: B10 VH
# VL: B10 VL
# B21: ADI-27243 (antibody, V domains shown)
# VH: B10 VH with G30S, Q33R, R55Y, G58S
# VL: B10 VL
# B22: ADI-27278 (antibody, V domains shown)
# VH: B13 VH
# VL: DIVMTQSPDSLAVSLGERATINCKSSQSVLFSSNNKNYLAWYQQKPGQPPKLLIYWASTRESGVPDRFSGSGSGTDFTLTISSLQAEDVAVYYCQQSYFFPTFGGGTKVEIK
# B23: ADI-30267 (antibody, V domains shown)
# VH: B16 VH with G30R, G35S, Y60F, R62Q, T101Y, S103E
# VL: B16 VL
# Target: T1, human TIGIT-Fc
# Assay: BLI
row,Kd [nM],Binder
1,1.19,B1
2,0.243,B2
3,32.1,B3
4,0.436,B4
5,0.547,B5
6,0.553,B6
7,6.48,B7
8,8.01,B8
9,0.807,B9
10,0.329,B10
11,0.566,B11
12,9.47,B12
13,10.9,B13
14,3.49,B14
15,2.43,B15
16,0.571,B16
17,13.8,B17
18,0.795,B18
19,1.66,B19

# Target: T2, human TIGIT on CHO cells
# Assay: FACS
row,EC50 [nM],Binder
1,0.326,B20
2,0.587,B21
3,0.968,B22
4,0.74,B23

# Target: T2, human TIGIT on CHO cells
# Assay: competition, CD155 blocking FACS
row,IC50 [nM],Binder
1,0.281,B20
2,0.819,B21
3,0.586,B22
4,0.278,B23
